Patent US20220372155A1 (LYVGEN BIOPHARMA, published 2022)

T1: human B7H4 expressed on CHO cells (human, UniProt Q7Z7D3 25-282)
T1 construct: whole, on cells; also called VCTN1
T1 sequence (looked up): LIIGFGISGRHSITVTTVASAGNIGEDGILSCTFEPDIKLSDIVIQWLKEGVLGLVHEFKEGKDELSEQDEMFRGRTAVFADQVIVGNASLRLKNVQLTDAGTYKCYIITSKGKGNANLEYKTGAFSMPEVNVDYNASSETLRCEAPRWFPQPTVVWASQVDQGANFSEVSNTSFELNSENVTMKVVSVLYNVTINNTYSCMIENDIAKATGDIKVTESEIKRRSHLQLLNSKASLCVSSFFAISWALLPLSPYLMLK


Legend:
[1] = target: T1, human B7H4 expressed on CHO cells; test: FACS, CHO cells
[2] = target: T2, human CD40 expressed on CHO cells (human, UniProt P25942 21-277); test: FACS, CHO cells
T2 construct: whole, on cells; also used for the reporter cells over-expressing human CD40; also called cellular CD40; CHO-CD40 cells

[3] = target: T3, human PD-1 expressed on CHO cells (human, UniProt Q15116 25-288); test: FACS, CHO cells
T3 construct: whole, on cells; also used for human PD-1 on Jurkat reporter cells; also called Jurkat/NFkB-Luci/PD-1 cells

[4] = target: T4, Ly090 (human CD40 ECD protein with His tag) (human, UniProt P25942 21-193); test: bridging ELISA, coated CD40 ECD-His, soluble PD-L1 ECD-mFc
T4 construct: extracellular domain; also called human CD40 ECD protein (His tag); recombinant human CD40; not shown: His tag
Procedure: Exemplary anti-PD-L1/CD40 bi-specific antibodies were analyzed by ELISA for their simultaneous binding to recombinant human PD-L1 and human CD40. Briefly, Ly090 (human CD40 ECD protein with His tag) was diluted and coated onto an ELISA plate with a volume of 100 μL/well by incubation at 4° C. overnight. The next day, the plate was blocked by PBST-BSA buffer, then serially diluted samples of anti-PD-L1/CD40 bi-specific antibodies were pipetted into appropriate wells at 50 μL/well, and the plate was incubated for 1 h followed by Washing. Human PD-L1 ECD protein (mouse IgG2a Fc tag) was added into the plate at 50 μL/well. After 1-hour incubation at room temperature, HRP-conjugated anti-Mouse IgG, Fc G2a antibody was added into the plate at 100 μL/well. The plate was incubated for 1 hour at room temperature followed by washing. TMB substrate solution was added at 100 μL/well and the color development was stopped by adding 100 uL/well Stop Solution (2N H₂SO₄). Absorbance at 450 nm and 620 nm was read by Tecan F200 Pro plate reader. GraphPad 7.0, “[Agonist] vs. response—Variable slope (four parameters)” was used to plot the binding data and calculate binding EC50 values.

T3 sequence (Q15116 25-288): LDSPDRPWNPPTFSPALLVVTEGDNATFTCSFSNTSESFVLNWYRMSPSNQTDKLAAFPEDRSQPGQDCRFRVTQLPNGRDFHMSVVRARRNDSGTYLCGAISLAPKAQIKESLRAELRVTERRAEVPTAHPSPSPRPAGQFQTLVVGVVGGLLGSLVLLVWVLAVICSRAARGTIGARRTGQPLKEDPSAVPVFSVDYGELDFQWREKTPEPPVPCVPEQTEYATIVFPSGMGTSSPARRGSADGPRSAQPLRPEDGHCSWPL
T2 sequence (P25942 21-277): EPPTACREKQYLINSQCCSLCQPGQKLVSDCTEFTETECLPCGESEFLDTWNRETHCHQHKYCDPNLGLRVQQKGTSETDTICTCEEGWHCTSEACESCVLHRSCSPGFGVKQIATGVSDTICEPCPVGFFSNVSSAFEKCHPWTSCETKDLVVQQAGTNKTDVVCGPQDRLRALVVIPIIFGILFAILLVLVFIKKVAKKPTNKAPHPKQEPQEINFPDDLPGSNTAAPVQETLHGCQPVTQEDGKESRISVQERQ
T4 sequence (P25942 21-193): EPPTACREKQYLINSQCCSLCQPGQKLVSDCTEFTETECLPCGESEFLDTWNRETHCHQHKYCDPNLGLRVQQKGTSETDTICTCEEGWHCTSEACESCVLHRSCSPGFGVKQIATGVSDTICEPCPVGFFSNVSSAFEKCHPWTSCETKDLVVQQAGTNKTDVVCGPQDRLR

| binding result [1] | binding result [2] | binding result [3] | binding result [4] | Binder |
| --- | --- | --- | --- | --- |
| binds | binds | – | – | Ly474 (bispecific antibody, human IgG1, kappa, Ly361 HC (IgG1 mutated Fc)-TM740 scFv VL-VH + Ly361 LC) heavy: EVQLVESGGDLVKPGGSLKLSCAASGFTFSSYGMSWVRQTPDKRLEWVAAISTGGSYTYYPDSVKGRFTISRDTATNTLYLQMSTLKSEDTAMYYCTRRGATGSWFAYWGQGTLVTVSAASTKGPSVFPLAPSSKSTSGGTAALGCLVKDYFPEPVTVSWNSGALTSGVHTFPAVLQSSGLYSLSSVVTVPSSSLGTQTYICNVNHKPSNTKVDKKVEPKSCDKTHTCPPCPAPELLGPSVFLFPPKPKDTLMISRTPEVTCVVVDVSHEDPEVKFNWYVDGVEVHNAKTKPREEQYNSTYRVVSVLTVLHQDWLNGKEYKCKVSNKALPAPIEKTISKAKGQPREPQVYTLPPSREEMTKNQVSLTCLVKGFYPSDIAVEWESNGQPENNYKTTPPVLDSDGSFFLYSKLTVDKSRWQQGNVFSCSVMHEALHNHYTQKSLSLSPGGGGGSGGGGSGGGGSGGGGSDIQMTQSPSSLSASVGDRVTITCKASQNIYIYLNWYQQKPGKAPKLLIYNTNNLQTGVPSRFSGSGSGTDFTLTISSLQPEDFATYYCLQHSSRRTFGGGTKVEIKGGGGSGGGGSGGGGSGGGGSQVQLVESGGGLVQPGGSLKLSCATSGFNFNDYFMNWVRQASGKGLEWVGQIRNKNYNYATYYTESLEGRVTISRDDSKNTAYLQMNSLKTEDTAVYYCTSYYYDGFADYFDYWGQGTTVTVSS light: DILMTQSPSSMSVSLGDTVSITCHASQGINNNIGWLQRKPGKSFKGLIYHGTNLEDGVPSRFSGSGSGADYSLTISSLESEDFADYYCVQYVQFPRTFGGGTKLEIKRTVAAPSVFIFPPSDEQLKSGTASVVCLLNNFYPREAKVQWKVDNALQSGNSQESVTEQDSKDSTYSLSSTLTLSKADYEKHKVYACEVTHQGLSSPVTKSFNRGEC |
| – | binds | binds | – | Ly817 (bispecific antibody, human IgG1, kappa, Ly516 HC (IgG1 mutated Fc) + Ly516 LC-TM740 scFv VL-VH) heavy: QVTLKESGPALVKPTQTLTLTCTFSGFSLSTSGTCVSWIRQPPGKALEWLATICWEDSKGYNPSLKSRLTISKDTSKNQAVLTMTNMDPVDTATYYCARREDSGYFWFPYWGQGTLVTVSSASTKGPSVFPLAPSSKSTSGGTAALGCLVKDYFPEPVTVSWNSGALTSGVHTFPAVLQSSGLYSLSSVVTVPSSSLGTQTYICNVNHKPSNTKVDKKVEPKSCDKTHTCPPCPAPELLGPSVFLFPPKPKDTLMISRTPEVTCVVVDVSHEDPEVKFNWYVDGVEVHNAKTKPREEQYNSTYRVVSVLTVLHQDWLNGKEYKCKVSNKALPAPIEKTISKAKGQPREPQVYTLPPSREEMTKNQVSLTCLVKGFYPSDIAVEWESNGQPENNYKTTPPVLDSDGSFFLYSKLTVDKSRWQQGNVFSCSVMHEALHNHYTQKSLSLSPGK light: NIQMTQSPSSLSASVGDRVTITCKAGQNVNNYLAWYQQKPGKAPKVLIFNANSLQTGVPSRFSGSGSGTDFTLTISSLQPEDFATYYCQQYNSWPTFGGGTKVEIKRTVAAPSVFIFPPSDEQLKSGTASVVCLLNNFYPREAKVQWKVDNALQSGNSQESVTEQDSKDSTYSLSSTLTLSKADYEKHKVYACEVTHQGLSSPVTKSFNRGECGGGGSGGGGSGGGGSGGGGSDIQMTQSPSSLSASVGDRVTITCKASQNIYIYLNWYQQKPGKAPKLLIYNTNNLQTGVPSRFSGSGSGTDFTLTISSLQPEDFATYYCLQHSSRRTFGGGTKVEIKGGGGSGGGGSGGGGSGGGGSQVQLVESGGGLVQPGGSLKLSCATSGFNFNDYFMNWVRQASGKGLEWVGQIRNKNYNYATYYTESLEGRVTISRDDSKNTAYLQMNSLKTEDTAVYYCTSYYYDGFADYFDYWGQGTTVTVSS |
| – | binds | binds | – | Ly819 (bispecific antibody, human IgG1, kappa, Ly516 HC (IgG1 mutated Fc) + Ly516 LC-TM559 scFv VL-VH) heavy: QVTLKESGPALVKPTQTLTLTCTFSGFSLSTSGTCVSWIRQPPGKALEWLATICWEDSKGYNPSLKSRLTISKDTSKNQAVLTMTNMDPVDTATYYCARREDSGYFWFPYWGQGTLVTVSSASTKGPSVFPLAPSSKSTSGGTAALGCLVKDYFPEPVTVSWNSGALTSGVHTFPAVLQSSGLYSLSSVVTVPSSSLGTQTYICNVNHKPSNTKVDKKVEPKSCDKTHTCPPCPAPELLGPSVFLFPPKPKDTLMISRTPEVTCVVVDVSHEDPEVKFNWYVDGVEVHNAKTKPREEQYNSTYRVVSVLTVLHQDWLNGKEYKCKVSNKALPAPIEKTISKAKGQPREPQVYTLPPSREEMTKNQVSLTCLVKGFYPSDIAVEWESNGQPENNYKTTPPVLDSDGSFFLYSKLTVDKSRWQQGNVFSCSVMHEALHNHYTQKSLSLSPGK light: NIQMTQSPSSLSASVGDRVTITCKAGQNVNNYLAWYQQKPGKAPKVLIFNANSLQTGVPSRFSGSGSGTDFTLTISSLQPEDFATYYCQQYNSWPTFGGGTKVEIKRTVAAPSVFIFPPSDEQLKSGTASVVCLLNNFYPREAKVQWKVDNALQSGNSQESVTEQDSKDSTYSLSSTLTLSKADYEKHKVYACEVTHQGLSSPVTKSFNRGECGGGGSGGGGSGGGGSGGGGSDIQMTQSPSSLSASVGDRVTITCLASEDISNDLAWYQQKPGKAPKLLIYFVDRLLDGVPSRFSGSGSGTDFTLTISSLQPEDFATYYCQQSYKYPPTFGQGTKLEIKGGGGSGGGGSGGGGSGGGGSEVQLVESGGGLVQPGGSLRLSCAASGFTFTNYGLHWVRQAPGKGLEWVSSISPSGGVTYYRDSVKGRFTISRDNSKNTLYLQMNSLRAEDTAVYYCAKPFLGWGGANWIAHWGQGTLVTVSS |
| – | binds | binds | – | Ly818 (bispecific antibody, human IgG1, kappa, Ly516 HC (IgG1 mutated Fc) + Ly516 LC-TM740 scFv VH-VL) heavy: QVTLKESGPALVKPTQTLTLTCTFSGFSLSTSGTCVSWIRQPPGKALEWLATICWEDSKGYNPSLKSRLTISKDTSKNQAVLTMTNMDPVDTATYYCARREDSGYFWFPYWGQGTLVTVSSASTKGPSVFPLAPSSKSTSGGTAALGCLVKDYFPEPVTVSWNSGALTSGVHTFPAVLQSSGLYSLSSVVTVPSSSLGTQTYICNVNHKPSNTKVDKKVEPKSCDKTHTCPPCPAPELLGPSVFLFPPKPKDTLMISRTPEVTCVVVDVSHEDPEVKFNWYVDGVEVHNAKTKPREEQYNSTYRVVSVLTVLHQDWLNGKEYKCKVSNKALPAPIEKTISKAKGQPREPQVYTLPPSREEMTKNQVSLTCLVKGFYPSDIAVEWESNGQPENNYKTTPPVLDSDGSFFLYSKLTVDKSRWQQGNVFSCSVMHEALHNHYTQKSLSLSPGK light: NIQMTQSPSSLSASVGDRVTITCKAGQNVNNYLAWYQQKPGKAPKVLIFNANSLQTGVPSRFSGSGSGTDFTLTISSLQPEDFATYYCQQYNSWPTFGGGTKVEIKRTVAAPSVFIFPPSDEQLKSGTASVVCLLNNFYPREAKVQWKVDNALQSGNSQESVTEQDSKDSTYSLSSTLTLSKADYEKHKVYACEVTHQGLSSPVTKSFNRGECGGGGSGGGGSGGGGSGGGGSQVQLVESGGGLVQPGGSLKLSCATSGFNFNDYFMNWVRQASGKGLEWVGQIRNKNYNYATYYTESLEGRVTISRDDSKNTAYLQMNSLKTEDTAVYYCTSYYYDGFADYFDYWGQGTTVTVSSGGGGSGGGGSGGGGSGGGGSDIQMTQSPSSLSASVGDRVTITCKASQNIYIYLNWYQQKPGKAPKLLIYNTNNLQTGVPSRFSGSGSGTDFTLTISSLQPEDFATYYCLQHSSRRTFGGGTKVEIK |
| – | binds | binds | – | Ly820 (bispecific antibody, human IgG1, kappa, Ly516 HC (IgG1 mutated Fc) + Ly516 LC-TM559 scFv VH-VL) heavy: QVTLKESGPALVKPTQTLTLTCTFSGFSLSTSGTCVSWIRQPPGKALEWLATICWEDSKGYNPSLKSRLTISKDTSKNQAVLTMTNMDPVDTATYYCARREDSGYFWFPYWGQGTLVTVSSASTKGPSVFPLAPSSKSTSGGTAALGCLVKDYFPEPVTVSWNSGALTSGVHTFPAVLQSSGLYSLSSVVTVPSSSLGTQTYICNVNHKPSNTKVDKKVEPKSCDKTHTCPPCPAPELLGPSVFLFPPKPKDTLMISRTPEVTCVVVDVSHEDPEVKFNWYVDGVEVHNAKTKPREEQYNSTYRVVSVLTVLHQDWLNGKEYKCKVSNKALPAPIEKTISKAKGQPREPQVYTLPPSREEMTKNQVSLTCLVKGFYPSDIAVEWESNGQPENNYKTTPPVLDSDGSFFLYSKLTVDKSRWQQGNVFSCSVMHEALHNHYTQKSLSLSPGK light: NIQMTQSPSSLSASVGDRVTITCKAGQNVNNYLAWYQQKPGKAPKVLIFNANSLQTGVPSRFSGSGSGTDFTLTISSLQPEDFATYYCQQYNSWPTFGGGTKVEIKRTVAAPSVFIFPPSDEQLKSGTASVVCLLNNFYPREAKVQWKVDNALQSGNSQESVTEQDSKDSTYSLSSTLTLSKADYEKHKVYACEVTHQGLSSPVTKSFNRGECGGGGSGGGGSGGGGSGGGGSEVQLVESGGGLVQPGGSLRLSCAASGFTFTNYGLHWVRQAPGKGLEWVSSISPSGGVTYYRDSVKGRFTISRDNSKNTLYLQMNSLRAEDTAVYYCAKPFLGWGGANWIAHWGQGTLVTVSSGGGGSGGGGSGGGGSGGGGSDIQMTQSPSSLSASVGDRVTITCLASEDISNDLAWYQQKPGKAPKLLIYFVDRLLDGVPSRFSGSGSGTDFTLTISSLQPEDFATYYCQQSYKYPPTFGQGTKLEIK |
| – | binds | – | binds | Ly342 (bispecific antibody, human IgG1, kappa, Ly076 HC (IgG1 mutated Fc)-Ly253 scFv VL-VH + Ly076 LC) heavy: not shown light: DIQMTQSPSSLSASVGDRVTITCKASQNVYKKLEWYQQKPGKVPKVLIYHTNILQTGVPSRFSGSGSGTDYTLTISSLQPEDVATYYCYQWNSGPTFGGGTKVEIKRTVAAPSVFIFPPSDEQLKSGTASVVCLLNNFYPREAKVQWKVDNALQSGNSQESVTEQDSKDSTYSLSSTLTLSKADYEKHKVYACEVTHQGLSSPVTKSFNRGEC |
